Measurements: paper PMC9367475

Tests used:
[1] = target: human DC-SIGN expressed on HEK 293T cells (DC-HEK) (human) (UniProt Q9NNX6)
[2] = target: DC-SIGN on THP-1 cells induced with PMA and IL-4 (DC-THP-1) (human (endogenous in THP-1)) (UniProt Q9NNX6)

Substance: recombinant SARS-CoV-2 spike protein (from UniProt P0DTC2 14-1273) (natural protein)
- IFN-α mRNA (RT-qPCR, 6 h) in DC-HEK cells challenged with Spike protein pre-incubated with rfhSP-D 20 µg/ml, against Spike protein without rfhSP-D [1]: -2.1
- NF-κB mRNA (RT-qPCR, 6 h) in DC-HEK cells challenged with Spike protein pre-incubated with rfhSP-D 20 µg/ml, against Spike protein without rfhSP-D [1]: -1.2
- RANTES mRNA (RT-qPCR, 6 h) in DC-HEK cells challenged with Spike protein pre-incubated with rfhSP-D 20 µg/ml, against Spike protein without rfhSP-D [1]: -1.3
- TNF-α mRNA (RT-qPCR, 6 h) in DC-HEK cells challenged with Spike protein pre-incubated with rfhSP-D 20 µg/ml, against Spike protein without rfhSP-D [1]: -3.3
- IL-1β mRNA (RT-qPCR, 6 h and 12 h: ~ -2.5 to ~ -4 log10) in DC-THP-1 cells challenged with Spike protein pre-incubated with rfhSP-D 20 µg/ml, against Spike protein without rfhSP-D [2]: -4
- IL-6 mRNA (RT-qPCR, 12 h) in DC-THP-1 cells challenged with Spike protein pre-incubated with rfhSP-D 20 µg/ml, against Spike protein without rfhSP-D [2]: -5
- IL-8 mRNA (RT-qPCR, 6 h and 12 h: ~ -2.3 to ~ -4.8 log10) in DC-THP-1 cells challenged with Spike protein pre-incubated with rfhSP-D 20 µg/ml, against Spike protein without rfhSP-D [2]: -4.8
- MHC class II mRNA (RT-qPCR, 6 h and 12 h: - 2 to - 2.7 log10) in DC-THP-1 cells challenged with Spike protein pre-incubated with rfhSP-D 20 µg/ml, against Spike protein without rfhSP-D [2]: -2.7
- NF-κB mRNA (RT-qPCR, 6 h and 12 h: ~ -1 to ~ -4 log10) in DC-THP-1 cells challenged with Spike protein pre-incubated with rfhSP-D 20 µg/ml, against Spike protein without rfhSP-D [2]: -4
- TNF-α mRNA (RT-qPCR, 6 h and 12 h: ~ -3.1 to ~ -6.8 log10) in DC-THP-1 cells challenged with Spike protein pre-incubated with rfhSP-D 20 µg/ml, against Spike protein without rfhSP-D [2]: -6.8
